These results are taken from PMC5461201.

Assay [1] addresses FLAG-ADAR1p110-T/S-to-D (phosphomimetic mutant) (human). The assay can be described thus: pull-down.
Assay [2] deals with FLAG-ADAR1p110-T/S-to-A (phosphorylation inhibitory mutant) (human). Description: pull-down.

Where only a bound is given, the exact number is not on record here.

Turning to “Xpo5-RanGTP complex (His-Xpo5 with His-RanQ69L and GTP, preassembled with VARdm RNA) (from UniProt Q9HAV4 1-1204; P62826 1-216)”, in assay [1], the binding efficiency (judged from unbound His-Xpo5 in flow-through) was 70% and the fold amount bound against ADAR1p110-T/S-to-A fell in the range of 10 to 20 fold. Besides, in assay [2], the binding efficiency (judged from unbound His-Xpo5 in flow-through) was less than 10%.
